# Non-standard residues stand in square brackets, D forms with d. No end group written: not given here. pT = C[C@@H](OP(=O)(O)O)[C@H](N)C(=O)O
# How the values were obtained:
# SUMO2 [1] = biological target: SUMO2 (UniProt P61956)
# SUMO2 [2] = biological target: SUMO2 (UniProt P61956); test: NMR titration
# SUMO1 = SUMO1 (UniProt P63165); test: NMR titration
# [3] = biological target: Chk2-FHA domain (aa:64-212) (UniProt O96017 64-212); test: ITC
# Sequence of Chk2-FHA domain (aa:64-212) (O96017 64-212): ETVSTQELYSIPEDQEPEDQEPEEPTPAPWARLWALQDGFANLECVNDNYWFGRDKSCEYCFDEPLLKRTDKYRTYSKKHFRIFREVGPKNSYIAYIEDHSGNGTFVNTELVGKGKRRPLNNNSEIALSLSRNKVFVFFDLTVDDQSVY
# Sequence of SUMO1 (P63165 1-97): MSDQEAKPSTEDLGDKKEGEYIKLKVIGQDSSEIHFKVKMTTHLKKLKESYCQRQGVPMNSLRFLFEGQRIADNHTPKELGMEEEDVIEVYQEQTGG
Molecule,Kd (SUMO2 [2]),Kd (SUMO1),also measured
"ICP0pm (phosphomimetic full-length ICP0, Ser365 and Ser367 mutated to aspartic acids) (from UniProt P08393 1-775) (enzyme)",–,–,"STUbL activity on SUMOylated FLAG-PMLs, against ICP0 (fold (against ICP0)) (SUMO2 [1]): 5"
SLS4 peptide of ICP0,81 µM,128 µM,–
ppSLS4 peptide of ICP0 (SLS4 phosphorylated at Ser365 and Ser367),3 µM,5 µM,–
pSLS4 peptide of ICP0 (SLS4 phosphorylated at Ser365),7 µM,16 µM,–
"DDDSASEADSTD[pT]ELFETGL [ICP0-FBM peptide, phosphorylated at Thr67 (FHA Binding Motif, aa: 55-74)]",–,–,Kd [3]: 0.75 ± 0.05 µM; dH [3]: -5.8 ± 0.1 kcal/mol; stoichiometry N [3]: 1.23

# From publication doi:10.1101/709485 (bioRxiv, 2019)
